The data set concerns the molecule itself. As to the kind of experiment: SEC. (In gel filtration, larger molecules generally elute earlier.)

B1: EcPAPR4cys (enzyme, Escherichia coli)
chain: MSKLDLNALNELPKVDRILALAETNAELEKLDAEGRVAWALDNLPGEYVLSSSFGIQAAVSLHLVNQIRPDIPVILTDTGYLFPETYRFIDELTDKLKLNLKVYRATESAAWQEARYGKLWEQGVEGIEKCCDINKVEPMNRALKELNAQTWFAGLRREQSGSRANLPVLAIQRGVFKVLPIIDWDNRTIYQYLQKHGLKYHPLWDEGYLSVGCTHCTRKWEPGMAEEETRFFGLKRECGLHEG
For B1, the stoichiometry N (commonly a count of units in the complex or per binding partner) was determined as 2.

These data come from article PMC3288176 (ACS Chemical Biology, 2011).
